Experimental findings from US20240410900A1 (Hoffmann-La Roche, published 2024) are described below.

Assay [1] addresses T1, anti-VEGF/ANG2 antibody (IgG1 subclass with mutations P329G/L234A/L235A).
T1 construct: Positions are EU numbers; also called sample 2; antibody 2
Put plainly: ELISA assay B, tracer M1.7.10-Dig, target 3 ng/mL. The protocol:
(§1) Biotinylated anti-PG Fc-region antibody or biotinylated anti-AAA Fc-region antibody, respectively, was bound to the wells of a streptavidin-coated multi-well plate (SA-MTP) to produce a capture plate. Excess of unbound antibody was removed by washing. Sample/standard antibodies spiked in human and cynomolgus monkey serum (10% final concentration) was added to wells of the SA-MTP multi-well plate coated with the capture plate and incubated for 1 hour at room temperature. After washing, the wells were incubated with digoxygenylated anti-human kappa antibody M1.7.10 (see e.g. WO 2011/048043, incorporated herein by reference). After washing the bound digoxygenylated anti-human kappa antibody complex was incubated with a horseradish peroxidase (HRP) labelled anti-digoxygenin antibody. After another washing step, an ABTS solution was added to the wells and incubated. The product of the color reaction was measured by Elisa reader at 405 nm wavelength (reference wavelength: 490 nm). Absorbance values of each sample or standard were determined in triplicates.
For orientation: An ELISA detects its analyte on a solid surface through an enzyme-linked reagent.

The target in assay [2] is T2, anti-IGF-1R antibody (IgG1 subclass with mutations I253A/H310A/H435A).
T2 construct: Positions are EU numbers; also called sample 3; antibody 3
Put plainly: ELISA assay B, tracer M1.7.10-Dig, target 3 ng/mL. How it is done: as §1

Assay [3] has as its target T3, anti-VEGF/ANG2 antibody (wild-type IgG1 subclass) (UniProt P01857-1 1-330 = IgG part).
T3 construct: also called sample 5; antibody 5
As to the kind of experiment: ELISA assay B, tracer M1.7.10-Dig, target 3 ng/mL. How it is done: as §1

Assay [4] concerns the target T4, anti-P-Selectin antibody (IgG4 subclass with mutations S228P/L235E).
T4 construct: Positions are EU numbers; also called sample 4; antibody 4
Put plainly: ELISA assay B, tracer M1.7.10-Dig, target 3 ng/mL. The protocol:
as §1

Assay [5] concerns the target T5, anti-VEGF/ANG2 antibody (IgG1 subclass with mutations P329G/L234A/L235A/I253A/H310A/H435A).
T5 construct: Format of the bispecific antibody not described; Positions are EU numbers, not positions on the UniProt entry; also called sample 1; antibody 1
As to the kind of experiment: ELISA assay B, tracer M1.7.10-Dig, target 3 ng/mL. The protocol:
as §1

Assay [6] has as its target T4, anti-P-Selectin antibody (IgG4 subclass …). Put plainly: ELISA assay C, tracer FcγRI-Dig, target 6 ng/mL.
In assay [7] the target is T1, anti-VEGF/ANG2 antibody (IgG1 subclass …). Put plainly: ELISA assay C, tracer FcγRI-Dig, target 100 ng/mL.
The target of assay [8] is T2, anti-IGF-1R antibody (IgG1 subclass …). As to the kind of experiment: ELISA assay C, tracer FcγRI-Dig, target 100 ng/mL.
Assay [9] addresses T3, anti-VEGF/ANG2 antibody (wild-type IgG1 …). As to the kind of experiment: ELISA assay C, tracer FcγRI-Dig, target 100 ng/mL.
Assay [10] concerns the target T4, anti-P-Selectin antibody (IgG4 subclass …). As to the kind of experiment: ELISA assay C, tracer FcγRI-Dig, target 100 ng/mL.
The target in assay [11] is T5, anti-VEGF/ANG2 antibody (IgG1 subclass …). Put plainly: ELISA assay C, tracer FcγRI-Dig, target 100 ng/mL.
Assay [12] has the same target. Put plainly: bridging ELISA, target-Bi capture and target-Dig tracer, binder 125 ng/mL, against the blank. The protocol: A dilution series of the monomeric full-length anti-PG Fc-region antibody clone 1.3.17 was prepared as standards for checking the possibility of generating a standard curve.
Biotinylated anti-VEGF/ANG2 antibody with the mutations P329G, L234A, L235A, I253A, H310A, and H435A and digoxygenylated anti-VEGF/ANG2 antibody with the mutations P329G, L234A, L235A, 1253A, H310A, and H435A were pre-incubated with the standards overnight at room temperature. After pre-incubation, the samples were transferred to a streptavidin-coated multi-well plate and incubated for 1 hour at room temperature. Excess of unbound antibody was removed by washing. After a washing step the bound digoxygenylated complexes comprising biotinylated and digoxygenylated anti-VEGF/ANG2 antibody with the mutations P329G, L234A, L235A, 1253A, H310A, and H435A as well as the monomeric, full-length anti-PG Fc-region antibody M1.3.17 (SEQ ID NO: 03 and 04) were detected with an horseradish peroxidase (HRP) labelled anti-digoxygenin-antibody. After a washing step and upon incubation with the respective substrate the HRP present in the formed complex catalyzes the conversion of ABTS into a colored product. The signal was measured by Elisa reader at 405 nm wavelength (reference wavelength: 490 nm). Absorbance values of each serum sample were determined in triplicates.

The target in assay [13] is T6, drug antibody (capture and tracer of the bridging immunoassay of FIGS. 2, 7 and 8; not named).
T6 construct: also called the same but differently derivatized drug antibodies
As to the kind of experiment: bridging immunoassay, drug antibody as capture and tracer, binder at 1000 ng/mL.

The target of assay [14] is T6, drug antibody (capture and tracer of …). As to the kind of experiment: bridging immunoassay, drug antibody as capture and tracer, binder at 2,500 ng/ml.

A value given as a limit tells only on which side of the number the result lay.

B1: anti-AAA variant Fc-region antibody M1.6.22 (antibody, V domains shown)
VH: EVQLVESGGDLVKPGGSLKLSCAASGFTFSSYGMSWVRQTPDKRLEWVATISSGGSYIYYPDSVKGRFTISRDNAKNTLYLQMSSLKSEDTAMYYCARLGMITTGYAMDYWGQGTSVTVSS
VL: DVLMTQTPLSLPVSLGDQASISCRSSQTIVHSTGHTYLEWFLQKPGQSPKLLIYKVSNRFSGVPDRFSGSGSGTDFTLKISRVEAEDLGVYYCFQGSHVPYTFGGGTKLEIK
notes: Murine variable domains; also called M1.6.22-Bi
On to B1, for which the “signal [OD405 nm]” value in assay [1] is 0.044 OD405 nm; in assay [2], 2.26 OD405 nm; in [3], 0.037 OD405 nm; in [4] it was 0.039 OD405 nm; in [5], 0.039 OD405 nm; in assay [6], 0.051 OD405 nm. Besides, the “signal [OD405 nm]” value worked out at 0.076 OD405 nm in assay [7]; 2.1 OD405 nm in [8]; 0.076 OD405 nm in assay [9]; 0.069 OD405 nm in assay [10]; 0.079 OD405 nm in assay [11].

B2: anti-PG variant Fc-region antibody M1.3.17 (antibody, V domains shown)
VH: EVKLLESGGGLVQPGGSLKLSCAASGIDFRRYWMNWVRQAPGKGLEWIGEIDPDSSTINYTPSLKDKFIISRDNAKNTMYLQMRKVRSEDTALYYCARPYDYGAWFAYWGQGTLVTVSA
VL: QAVVTQESALTTSPGETVTLTCRSTTGAVTTSNYANWVQEKPDHLFTGLIGGTNKRAPGVPARFSGSLIGDKAALTITGAQTEDEAIYFCALWYSDHWVFGGGTKLTVL
notes: Monomeric, bivalent full-length antibody with murine variable domains; Biotinylated when used as capture antibody; also called anti-PG antibody clone 1.3.17; M1.3.17-Bi
In the case of B2, the “signal to noise ratio” value in assay [12] is 1.85. The “signal [OD405 nm]” value in [1] amounted to 0.165 OD405 nm; in [2], 0.047 OD405 nm; in assay [3], 0.044 OD405 nm; in assay [4], 0.05 OD405 nm; in assay [5], 0.036 OD405 nm; in assay [6], 1.18 OD405 nm. In addition, the “signal [OD405 nm]” value in assay [7] stood at 1.22 OD405 nm; in assay [8] it was 1.2 OD405 nm; in assay [9], 1.18 OD405 nm; in assay [10], 1.17 OD405 nm; in assay [11], 1.19 OD405 nm.

B3: anti-PG variant Fc-region antibody M1.7.24 (monomeric, bivalent) (antibody, V domains shown)
VH: EVKLLESGGGLVQPGGSLKLSCAASGFDFSRYWMNWVRQAPGKGLEWIGEITPDSSTINYTPSLKDKFIISRDNAKNTLYLQMIKVRSEDTALYYCVRPYDYGAWFASWGQGTLVTVSA
VL: QAVVTQESALTTSPGETVTLTCRSSTGAVTTSNYANWVQEKPDHLFTGLIGGTNKRAPGVPARFSGSLIGDKAALTITGAQTEDEAIYFCALWYSNHWVFGGGTKLTVL
notes: Full-length Y-shaped antibody with murine variable domains; Biotinylated when used as capture antibody; also called anti-PG antibody clone 1.7.24; M1.7.24-Bi
Take B3: the “signal-to-noise ratio (S/N)” value in assay [13] is 3.8. For the same molecule, the signal-to-noise ratio in assay [14] is above 2. The “signal [OD405 nm]” value in assay [1] stood at 2.51 OD405 nm; in assay [2] it was 0.046 OD405 nm; in assay [3], 0.033 OD405 nm; in assay [4] it was 0.031 OD405 nm; in assay [5], 0.04 OD405 nm; in assay [6] it was 0.053 OD405 nm. In addition, the “signal [OD405 nm]” value in assay [7] came to 0.082 OD405 nm; in [8], 0.11 OD405 nm; in assay [9], 0.073 OD405 nm; in [10] it was 0.08 OD405 nm; in [11] it was 0.05 OD405 nm.
